Laboratory results reported in the nanobody polyreactivity screen of Harvey et al. (2022).

Test: yeast display, Sf9 membrane polyspecificity reagent, FACS + sequencing; frameworks hold sequencing errors
How it was run: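 Galactose induction of a Saccharomyces cerevisiae BJ5465 synthetic nanobody display library ran 36–48 hours. The cells were then stained for 1 hour at 4 °C with 10% biotinylated, detergent-solubilized Sf9 membrane reagent, pulled down on streptavidin microbeads and FACS-sorted into low and high (top ~1%) gates on expression and reagent-binding fluorescence. Labels for polyreactivity follow the gate of origin.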
With “QVQLVESGGGLVQAGGSLRLSCAASGRIFVRNAMGWYRQAPGKEREFVAAISRSGGSTYYAYSVKGRFTISRDNAKNSVYLQMNSLKPEDTAVYYCAADYPKTYTSKFNYWGQGTQVTVSS” the “polyreactivity (PSR sort gate)” value was “high polyreactivity”.
In the case of “QVQLVESGGGLVQAGGSLRLSCAASGRIFVRNAMGWYRQAPGKERELVAAITRTGASTYYADSVKGRFTISRDNAKNTVYLQMNSLKPDDTAVYYCAAVWGWPYWVYRYDYWGQGTQVTVSS”, the “polyreactivity (PSR sort gate)” value is reported as “high polyreactivity”.
In the case of “QVQLVESGGGLVQAGGSLRLSCAASGRIFVRNAMGWYRQAPGKERELVAAITTGGRTYYADSVKGRFTISRDNAKNTVYVQMNSVKPEDTAVYYCAATGDRKGYKYIYSDTNDYWGQGTQVTVSS”, the “polyreactivity (PSR sort gate)” value is reported as “low polyreactivity”.
With “QVQLVESGGGLVQAGGSLRLSCAASGRIFVRNAMGWYRQAPGKERELVADITNGGSTNYADSVKGRFTISRDNAKNTVYLQMNSLNPEDTAVYYCAADTLGVYDGDYWGQGTQVTVSS” the “polyreactivity (PSR sort gate)” value was “low polyreactivity”.
For “QVQLVESGGGLVQAGGSLRLSCAASGRIFVRYAMGWYRPAPGKERELVATISSRGGSTYYADSVKGRFTISRDNAKNTVYLQMTSLKPEDTAVYYWAAYVYPWGRDYWGQGTQVTVSS”, the “polyreactivity (PSR sort gate)” value was “high polyreactivity”.
In the case of “QVQLVESGGGLVQAGGSLRLSCAASGRIFVRYAMGWYRQAPGKEREFVAAINYSGGSTYADSVKGRFTISRDNAKNSVFLQMIRLKPEDTAVYYCAADYQGITSSDPYDYWGQGTQVTVSS”, the “polyreactivity (PSR sort gate)” value is reported as “low polyreactivity”.
For “QVQLVESGGGLVQAGGSLRLSCAASGRIFVRYAMGWYRQAPGKERELVAAITTTGDSTYADSVKGRFTISRDNAKNTVYLQMNSLKPEDTAVYYCNAAWPESRFLVYHRYDYWGQGTQVTVSS”, the “polyreactivity (PSR sort gate)” value was “low polyreactivity”.
For “QVQLVESGGGLVQAGGSLRLSCAASGRIFVRYTMGWYRQAPGKERELVAAINSGGRTYYADSVKGRFTISRDNAKNTVYLQMNSLKPEDTAVYYCAADRVYYGQRDYWGQGTQVTVSS”, the “polyreactivity (PSR sort gate)” value was “high polyreactivity”.
In the case of “QVQLVESGGGLVQAGGSLRLSCAASGRIFVTYAMGWYRQAPGKERELVAAITSRGGRTYYADSVKGRFTISRDNAKKTVYLQMNSLKPEDTAVYYCAAYPGPGARYYYWGQGTQVTVSS”, the “polyreactivity (PSR sort gate)” value is reported as “high polyreactivity”.
In the case of “QVQLVESGGGLVQAGGSLRLSCAASGRIFVTYAMGWYRQAPGKERELVASISRSGGRTYYADSVKGRFTISRDNAKNTVYLQMNSLKPEDTAVYYCNADQEGYQQYFYLGSPYDYWGQGTQVTVSS”, the “polyreactivity (PSR sort gate)” value is reported as “low polyreactivity”.
In the case of “QVQLVESGGGLVQAGGSLRLSCAASGRIFVTYAMGWYRQAPGTERELVAAINSSVSSTRYADSVKGRFTMSRDNAKNTVYLQMNSLKPEDTAVYYCAAVYRYVRPIAKDEYWGQGTQVTVSS”, the “polyreactivity (PSR sort gate)” value is reported as “low polyreactivity”.
With “QVQLVESGGGLVQAGGSLRLSCAASGRIFVTYGMGWYRQAPGKERELVAAINWRGGSTYYADSVKGRFTISRDNAKNTVYLQMNSLKPEDTAVYYCNARLYRNRLGYWGQGTQVTVSS” the “polyreactivity (PSR sort gate)” value was “high polyreactivity”.
With “QVQLVESGGGLVQAGGSLRLSCAASGRIFVVNAMGWYRQAPGKERELVATITRSGGITYYADSVKGRFTISRDNAKNTVYLQMNSLNPEDTAVYYCNADVLFYTYYTRGRFDFDYWGQGTQVTVSS” the “polyreactivity (PSR sort gate)” value was “low polyreactivity”.
For “QVQLVESGGGLVQAGGSLRLSCAASGRIFVVYAMGWYRQAPGKERELVASISRGGRTYYADSVKGRFTISRDNAKNTVYLQMNSLKPEDTAVYDCAVVVYLKNRDLFDYWGQGTQVTVSS”, the “polyreactivity (PSR sort gate)” value was “low polyreactivity”.
With “QVQLVESGGGLVQAGGSLRLSCAASGRIFVYNAMGWYIQAPGKERELVAAISWSTGRTNYADSVKGRFTISRDNAKNTVYLQMNSLKPDDTAVYYCAAEWAWEYYSFWSEYDYWGQGTQVTVSS” the “polyreactivity (PSR sort gate)” value was “high polyreactivity”.
With “QVQLVESGGGLVQAGGSLRLSCAASGRIFVYNAMGWYLQAPGKERELVANIDYSGGSTYYADSVKGRFTISRDNAKNTVYLQMNSLKPEDTAVYYCAADGGSTAFDYWGHGTQVTVSS” the “polyreactivity (PSR sort gate)” value was “low polyreactivity”.
For “QVQLVESGGGLVQAGGSLRLSCAASGRIFVYNAMGWYRQAPGKEREFVAAISWDGASTYYADSVKGRFTISRDNAKNTVYLQMNSLKPEDTAVYYCAASYRRKLNYDYWGQGTQVTVSS”, the “polyreactivity (PSR sort gate)” value was “low polyreactivity”.
With “QVQLVESGGGLVQAGGSLRLSCAASGRIFVYNDMGWYRQAPGKERELVAAISSVGTTYYADSVKGRFTISRDNAKNTVYLQMNSLKPEDTAVYYCAVTRYHSPPRYYYWGQGTQVTVSS” the “polyreactivity (PSR sort gate)” value was “low polyreactivity”.
For “QVQLVESGGGLVQAGGSLRLSCAASGRIFVYNTMGWYRQAPGKERELVAVISIGGSTKYADSVKGRFTISRDNAKNTVYLQMNSLKPEDTAVYYCNTDLAGLVYIAVDYWGQGTQVTVSS”, the “polyreactivity (PSR sort gate)” value was “low polyreactivity”.
For “QVQLVESGGGLVQAGGSLRLSCAASGRIFVYNVMGWYRQAPGKERELVAAISWGTGSTYADSVKGRFTISRDNAKNTVYLQMHSLKPEDTAVYYCAADSFIPPYDHWGQGTQVTVSS”, the “polyreactivity (PSR sort gate)” value was “low polyreactivity”.
In the case of “QVQLVESGGGLVQAGGSLRLSCAASGRIFVYNVMGWYRQAPGKERELVAAISWGTGSTYADSVKGRFTISRDNAKNTVYLQMNSLKPEDTAVYYCAAPSPRSRAYTYRGDYWGQGTQVTVSS”, the “polyreactivity (PSR sort gate)” value is reported as “low polyreactivity”.
For “QVQLVESGGGLVQAGGSLRLSCAASGRIFVYYAMGWYRQAPGKERELVAAIRWTGGSTYYADSVKGRFTISRDNAKNTVYLQMNSLKPEDTAVYYCATVNRYGHFNYWGQGTQVTVSS”, the “polyreactivity (PSR sort gate)” value was “high polyreactivity”.
With “QVQLVESGGGLVQAGGSLRLSCAASGRIFVYYAMGWYSQAPGKERELVASISYSGASTYYADSVKGRFTISRDNAKNTVYLQMNSLKPEDTAVYYCNTDGDDFFHVIYDYWGQGTQVTVSS” the “polyreactivity (PSR sort gate)” value was “low polyreactivity”.
With “QVQLVESGGGLVQAGGSLRLSCAASGRIFWDNAMGWYRQAPGKERELVAAIDYRGGNTNYADSVKGRFTISRDNAKNTVYFQMNSLKPEDTAVYYCNAEWAVRYPGYDYWGQGSQVTVSS” the “polyreactivity (PSR sort gate)” value was “low polyreactivity”.
In the case of “QVQLVESGGGLVQAGGSLRLSCAASGRIFWDYGMGWYRQAPGKERELVAVITWGGGSTYYADSVKGRFTISRDNAKNTVYFQMNSLKPEDTAVYYCAKEYHYYYWGQGTQVTVSS”, the “polyreactivity (PSR sort gate)” value is reported as “low polyreactivity”.
For “QVQLVESGGGLVQAGGSLRLSCAASGRIFWEYAMGGYRQAPGKERELVAAITWRVGSTYYADSVKGRFTISRDYAKNTVYLQMNSLKPEDTAVFYCAAARYLSIYNYWGHGTQVTVSS”, the “polyreactivity (PSR sort gate)” value was “low polyreactivity”.
With “QVQLVESGGGLVQAGGSLRLSCAASGRIFWGNAMGWYRQAPGKERELVAAITRSGGSTYYADSVKGRFTISRDNAKNTVYLQMNSLKPEDTAVYYCAARRNYINFRYTLDYYYWGQGTQVTVSS” the “polyreactivity (PSR sort gate)” value was “high polyreactivity”.
In the case of “QVQLVESGGGLVQAGGSLRLSCAASGRIFWGYAMGWYRQAPGKERELVAAITSGGSTYYADSVKGRFTFSRDNAKNTVYLQMNSLKPEDTAVYYCAAYYVLKLRYGHRYYYWGQGTQVTVSS”, the “polyreactivity (PSR sort gate)” value is reported as “high polyreactivity”.
In the case of “QVQLVESGGGLVQAGGSLRLSCAASGRIFWGYAMGWYRQAPGKERELVAGIRTSGGTTYYADSVKGRFTISRDNAKNTVYLQMNSLKPEDTAVYYCAVVQYTVYNSLYDYWGQGTQVTVSS”, the “polyreactivity (PSR sort gate)” value is reported as “low polyreactivity”.
With “QVQLVESGGGLVQAGGSLRLSCAASGRIFWGYDMGWYRQAPGKEREFVAAISSGGGRKYYADSVKGRFTISRDNAKNTVYLQMNSLKPEDTAVYYCNAELNWYYYIHLDYWGQGTQVTVSS” the “polyreactivity (PSR sort gate)” value was “low polyreactivity”.
